Measured values from the domain aggregation screens of Martell et al. (2025).

Assay: soluble fraction after stress (log2 fold change); higher = more stays soluble; pooled small domains, quantitative proteomics
Settings: stress: pH 4
Outline: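 With high-throughput quantitative proteomics, pooled custom libraries of small protein domains were measured after pH 4 stress. Each domain's soluble amount after the stress gives a fold change taken as aggregation propensity. Higher log2 values mean more of the domain stayed soluble.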

Sequence	soluble fraction (log2)
HMVSLRQQVYDYLRSQMNQGELRPGSAINLGEMSSRFGISRTPLREALLQLETEGFVTIYPRKGIIVN	-0.243
HMSAEKDGEWLTLTEAAKHLQVSPHVIRRLIQTGALPAEQVMRGAPHQIRAADLDTDRVKTMIAR	0.228
HMDDMVLEIGPGIGTMTQYLAEAAGKVVAVEIDRNLLPILQETLADYDNVKVIHADVLSLDLEKLVQEE	-0.868
HMKDYTIDDIINSKVEHPLGGYQSRFKVGEYEVSVVGGRQTNHGDFIHTFELAIFDKNNNFLRNLTPVTID	-0.411
HMPASGISSEIIYDGILIEENLRQLKKDKAWLMDQLKKKGISSVSEVFLATLNKGGSLYIDKY	-0.0537
HMKNELNSKLIISIKEALPPQIKVATYLMDLLSLGREAVYRRIRGDVSFDLEELSIISKALNISIDDVL	-2.53
HMKEDFPLLEQLRYTGEGADVTGTAEKMESIQALRSAADSGGFRATLGDIQQIPGGGLRFTLSLRGSR	-0.226
HMQSSTAISFNQFQKSWLSNNIKSFQLGEDKMTVRGSLKNGTQYETIVPSERLFQFIGQHPKDGQVQEMY	≥ 0.43
HMQQVDWGSVFGDFGTMFKDQLQPTIDRLRRMAQSDTFRQSSLEEQQILYSLIEKLERSGTA	-2.1
HMAEAAVELSQQILARLLEAGGSLPLSDKSSPEDIHRLFGVSKRTFKKAIGGLYKKGLILIHPERIELP	-0.0448
HMSMISLPNFVGKDIETVKAWAKENGITLIINKVEDSAKKDTVISQNPTNSDYSKILKGSAFTVNIAKE	0.126
HMDREIVEAIVPLEAAGKRFDAALAEMFPEFSRSRLTEWIKAGDALLAGEIVKPKVSVRGGEAVSLSIRV	-0.256
HMHSDWITWWYLKDKRFDDDYSLWDRQPVHPEYFEVVKEFKAPPESNPGGLDEVKRILRTYIPDAFAP	0.162
HMSPDALSNLPIGSEIKFTLWDGTEKRLVKHPAAYQFSRPFWMNLNEYTYVPVNRIPKNYEVIRL	-0.0954
HMLTLTNREKQVLVYIAKGHQVAQIAYELKLSGHTINGYIKTIYQKLHISSRAEAALLAQQYGL	-0.138
HMGNFFDSAILALKNAIQENYGGNVSQAARSLGISVPTLHTWIKGDRKPSLEKLSPILDALNAKIVL	-0.276
HMTSISMDEKVVLGWHQVTTGAANSGMDKVVSNTSGLNVISPTWFKLSDNKGNYISIASKDYVDAAHKKGL	-0.317
HMNVESMVGKQGKVVVEIDNISAKGMIKVDGMEWTARSVDGEIIPKDSLVAVVSVEGVKAMVRKAE	0.15
HMAPRIVTIQIPVDKIRDVIGPGGKVIRSIIERTGVKIDVEDDGRVNVASADGDSAQRAIAIIQELTAT	-0.0595
HMDDLATAYKAMGVDASISDKDLKRAYRKLMSQHHPDKMIAKGVPADMVAMATEKTQEIQAAYDLIERSR	0.0752
HMTGTVKVNSLNVYKSASLDSEVKDTLVLNTKVTIAENGQVTDGIYVWGRLQSGEGYVQMNNLTL	-1.59
HMVKTIINGEEKDFDAQDFQTFGDFLKKVIPEGQILKSLKINSKDVPIAFIDELKSATVDENITIEMELA	0.315
HMLPDAESFSYEVPYTKGDGGTYNYEGKIKAQNADAARDEIIRQAQVYFQMNPQFTPDYPSTTITSLD	0.0666
HMFLTPLEEARLVIEEIVIPKNIAVDLSPRPSALRKQQHELIAHYQLKSFSVGNERTKRLRILPKVI	-0.46
HMASELQQVQALLESQRYNEALILIETTIGKGASESTELLFARADVFASSGRHDEAEQAYREL	-0.45

Sequence	soluble fraction (log2)
HMDSSSYSAKVGTLIQETRQARGMTQAQLAQALGTSQSAINRIEKGGQNISLDMLNRISEVLSSQIVTLNP	-0.255
HMSVTPLLDATEKDKTKYRDLWLVAVVKNGVNYARKYKFGYVYAWLYRHDRDWLLQVNNQHKIPNIT	-0.107
HMAYQQITIKANVVNVRQGPGLSYDVMSQANKGETMNVISQKNNWYQVRLSGDKIGWVASWLVDNT	≥ 0.43
HMLVSVSNYLGQNVDTVKSDLEALGLVVKLKEQQTDRESENGAVLEQSIEGGSKVSAGTPITLTYGK	-0.00697
HMKMSVEEVNLSPRTTNALINNDIKTMKDLVALTDTELRDLKGFGSKAYEEVKEKLSELGLSTQ	-0.546
HMLEPGQKVKSVVVDISGDLIYIDLGGKTEGVVELKEFYDEAGEYHVKPGDEIEVFFVSVQNGLKRFTT	-0.403
HMNSVYTPDPKELAKAIKIVTAAREAEQKGQGVIAVDGRMVDAPVVSQALRILELARLAGMEVSE	0.22
HMNPEDLSGVRKAAILLLTMDDEVTKDVMKGLDEEEIEAIGKEITNLKLIPDHVVHRVQEEFMTKVSK	-0.375
HMADEIQLVVQVNGKLRGRIMVAPDASREEIEKTALADADVSRFLGDTPVKKVIIVPKRLVNIVAPAPK	0.0692
HMSTDKIDIVSSAILSSLKDNDGFIGLTDKSPPPEIYTAFRVSKKVFKQAIGALYKQRRITLESSGIRLIS	-0.107
HMNDRRQDVFELLKSSERPVSAADLAHKFGVTRQVIVADIALLRASDIDIVSTNRGYILKANL	0.0252
HMEPSQEFSLADMVAYDLTGYPKSAALRAAVGASLGIGYGNAKQFVYRLNHYGISKDDFHRAAQEALDGL	0.057
HMKPTSLLGIERYLGSGLIRGVGPSTAKQIVEHFGMETMEVLTEHPERLQEVHGMGRKRWRQIAESFQEQQ	-0.0617
HMKMVSTPTGTRISLTQVKEFISNASFDDMKEILLEVLAWFKAHNLGNPFNYNRAFEFIVAH	-0.302
HMIDPHGSLTLDLRPRDARVEIIDSNKTYKPGVRLPMGEYAIAVSRRGYISETKRINIEYGDNRERVAL	-0.00328
HMHIELNDTQKRILNFLSDDPNLSAVRLAEQLGISSRNVEKNIKKLKEYGILIRHGSPKNGYWEIVV	-0.2
HMSTLTGTQRAAVVLMQMSPPNAARVMAQFTDAEAEEIAAEIVRLRKVDPEVAEQIMKDFHEAALSS	-0.645
HMQQVIEGLDSDRDFITVPEAIALFAVGRQTLYHYIRSGKIPSVNLGQRLTRLSKKQLGELFPLR	-0.287
HMLVSFGDHLKRYIYERAGIEEPFGEVPQEIYRDIAVDSFRETYTPKSMNPTSTKLPALVNNWLIQ	-0.388
HMLQVSDENFVVELVQKVLLDNPSSVQEYKNGKESVLQFLIGQAMKASKGTANPQIVKEIMLKLL	-0.443
HMSVLSVASKNQAINPGQVVALLKDGIKLNDDGRVEILDNNNNIRYNEKGNLLSIEERVKEFLDANPHFRQ	-0.134
HMNVDSIPGKSGIVTQGIDNLKAMGRVTVNGMEWTARSKDGSLIEEGKVVRVYGVEGVKLIVEED	-0.72
HMALSLPDDMTIVRKDGSSLEVRLKSRTVTEIHFERISDSETFQFSIDQLDETTRELVEQYPVM	-0.407
HMDLYEILGVRRGAGGGEIRRAYRRLARRYHPDVNPGDREAQARYALITRAFETLNDPERRRAYDAGVP	0.0754
HMNTDIHRLLDEAFVRVDMTPDAQHLKEEIRANLVARVDELEASGVPSADAARRAIAELGDVRELL	-0.671

Sequence	soluble fraction (log2)
HMDGVSAEAVKSHIKTLIDGEGAKILSDDTLVDLLNAKGFDIARRTVAKYREAMGIGSSVQRRRQKKMG	-0.0273
HMGLRERLLNYIAYKGIDKATLERKSGLSNDAVNKMGDNTRVSTLDKISNAFPDINIAWLKTGVGEMILG	0.146
HMKYFDRDLINYIQKTLAGKKIDFHEKIVPLIIELAGSDIRRVDEIIDMAEYSGKGMHVSEEMIRELAGDV	-1.72
HMKEVVVPDYFLKQLQKNKKAFITFNNFSPSHKREYVEWITEAKTEETKNRRMKSAIEWMSEGKSRNWKYI	0.22
HMAEEGEQAASNTAAQAEDRAAELAAAGEKGKQITKTLVAEFGIPKNEAYRLALDAVAAVKAER	-0.427
HMDGPELYESMKAIVPDQLDRTIFLTGGAYTPRAQEFLARVPNQQMEKPFEFEALRSLLARLT	-0.199
HMPVEQVWHIAEAGKTKGPFSRASMGRMSADGALTRDTLVWTAGQDGWKKAADVTALATLFT	-0.0499
HMATINGIEKYLSSGLIPGIGPHTAKKLVEKFGLDTLDIMQYNPDRLTEVEGIGDKKAAKISEAFQEQK	-0.191
HMEWTDHLAEELRSLAVEGEHLEIIANKLGISPGSARAKLVNLNIYNDYQLAHIERLEADTLQAK	-0.967
HMDTVEALTEQLKKLDKRGEGQIPAPEFKQYMMNMGGKMTAEELDEMMKVADPGKEGVVNIAEFADAL	-0.229
HMVVMKGKVKWFNKNKGYGFIITDDNKEYFVHWKSIVTNSPRELKVLEQDELVTFDLMETDKGIQAINII	-1.22
HMLDLPVKTINGKQYYYYTVKKGDTVYSLITRFGITRSDLVESNPAAADVLKTGDTLYFAVDKFG	0.0813
HMAEERVLSVPQSLAGERLDAALASLMPDYSRSRLASWIKEGLVTVDGAGAMPKQKLWGGETLRVQAQPT	0.0973
HMLPDPIYEAFMMASDLGIVVRNGPQYAYPDKETGEVLYKALGREKFLQLMKDNDGLLTSIETEIRSM	-1.3
HMRNPLYAQVADYVMQQIAAGTYRPHQAIPTEWQLAKKLEVSQGTVRKGLDELVFKQILYRQQGVGTFVAD	0.0353
HMSSVVVARTWTDTTGDFKVEAELLGVEGGLVRLKKEDGTVLSVPIAKLSTADRTFLQENQP	0.22
HMIRTGEVVTGKVINVKEDQIILNIGFKSDGIITRNEYTNDNSLDLRTVVHEGDEIEAKVLKVNDGEGQVV	0.12
HMLRTEYLTVNYAKASEVAELVTASGFLSSRGSITVDERTNTLLLQDTATNIDEVRFMLEQLD	-0.868
HMNNIINEAQIKQWVEEFYLSVSPRPTRATMIALVHKKIKEETKDGEEGQTVSETLINNFYTALEKEHKRK	0.22
HMTPEGAYTVSEIVKVINSFADEYKVPFTMHVSGYKYEEIAQQLGLPIGTVKSRIFFARKRLQELLN	-1.03
HMDFEVGTVKWFNTKKGYGFITRDQGEDIFVHFRNIKGQGRRSLSDGERVSFVVTHGDKGLQADQVSP	-1.18
HMSGRVPTADDIAVGMKVYVPRLGGTGTVVTEPVRDKVVIQVGSLRLHAEVAELLLPDEHGRIQVPR	-0.127
HMVKSSVTEVISMINALPVTVKPEDKADIISARMAYDTLTEDEKALVTNYEILTAAETRFNELIATT	-0.101
HMSPLPDRESLGAIEKLISLLGSSEWTVREKATRELGAFGYLARPVLQRELATSGDPEVSRRLERILSNL	-0.00724
HMNNTIKFSVDTTNSGKRLDIFLAENIKQFTRSYLKKIISNNQVKLNNLVANSPSIKVKHSDLILINILE	-0.62
